The assay deals with His-tagged SARS-CoV-2 RBD (SARS-CoV-2 Wuhan-Hu-1, UniProt P0DTC2). Put plainly: BLI. In general terms: Biolayer interferometry detects binding as a change in optical thickness at a sensor tip.

B1: Fab fragment of THSC20.HVTR26 (Fab, V domains shown)
VH: EVQLVESGGGLVQPGGSLRLSCAASGFTVSSNYMSWVRQAPGKGLEWVSAIYSGDSTYYADSVKGRFTISRHNPKNTLYLQMNSLRAEDTAVYYCARLVGALTNIVVSGDGGAFDIWGQGTMVTVSS
VL: SYELTQPASVSGSPGQSITISCTGTSSDVGSYNLVSWYQQHPGKAPKLMIYEVSKRPSGVSNRFSGSKSGNTASLTISGLQAEDEVDYYCCSYAGSSTWVFGGGTKLTVL
In the case of B1, the binding result was “binds”.

For the origin of these results see publication doi:10.1101/2022.12.03.518949 (bioRxiv, 2022).
